Measurements published in article PMC5507214.

Biological target: RPA (Homo sapiens, UniProt P27694;P15927;P35244 1-616;1-270;1-121)
Test: EMSA

Sequence of RPA (P27694 whole entry, chain 1 of 3): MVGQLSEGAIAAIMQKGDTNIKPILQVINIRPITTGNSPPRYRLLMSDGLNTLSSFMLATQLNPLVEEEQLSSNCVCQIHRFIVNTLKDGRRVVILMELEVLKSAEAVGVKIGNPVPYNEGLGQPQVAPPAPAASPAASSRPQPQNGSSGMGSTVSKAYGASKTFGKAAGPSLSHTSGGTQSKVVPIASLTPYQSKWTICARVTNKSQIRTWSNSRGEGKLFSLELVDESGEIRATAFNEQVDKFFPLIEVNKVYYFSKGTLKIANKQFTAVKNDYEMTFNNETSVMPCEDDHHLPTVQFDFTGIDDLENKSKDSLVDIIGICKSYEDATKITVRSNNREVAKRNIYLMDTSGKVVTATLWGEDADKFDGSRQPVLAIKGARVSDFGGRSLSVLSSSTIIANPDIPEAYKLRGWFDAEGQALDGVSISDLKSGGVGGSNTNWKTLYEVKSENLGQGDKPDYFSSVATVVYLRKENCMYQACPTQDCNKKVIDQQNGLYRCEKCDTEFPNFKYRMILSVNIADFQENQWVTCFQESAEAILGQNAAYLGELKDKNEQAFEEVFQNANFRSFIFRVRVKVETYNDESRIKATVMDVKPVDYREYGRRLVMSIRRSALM
Sequence of RPA (P15927 whole entry, chain 2 of 3): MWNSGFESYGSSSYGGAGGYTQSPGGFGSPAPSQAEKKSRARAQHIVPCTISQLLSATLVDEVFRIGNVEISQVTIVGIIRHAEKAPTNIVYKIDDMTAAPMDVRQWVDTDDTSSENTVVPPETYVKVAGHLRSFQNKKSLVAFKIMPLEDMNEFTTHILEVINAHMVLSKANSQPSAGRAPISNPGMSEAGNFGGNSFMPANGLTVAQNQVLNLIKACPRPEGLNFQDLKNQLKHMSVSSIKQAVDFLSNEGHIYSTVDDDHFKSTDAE
Sequence of RPA (P35244 whole entry, chain 3 of 3): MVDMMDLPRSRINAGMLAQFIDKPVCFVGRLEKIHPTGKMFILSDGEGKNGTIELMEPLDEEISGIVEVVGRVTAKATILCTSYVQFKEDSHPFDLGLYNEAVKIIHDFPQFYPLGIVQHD

B1: R:D (25-bp RNA:DNA hybrid) (DNA:RNA)
RNA: GCAGCUGGCACGACAGGUAUGAAUC
DNA: GATTCATACCTGTCGTGCCAGCTGC
Does B1 bind?
Result: no binding
